Data reported in the supplement of paper PMC12764529.
± gives the half width of the 95% confidence interval.

Columns and labels:
[1] = folding stability dG unfold from chymotrypsin proteolysis; higher = more stable
Summary of the method: (§1)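 Only designs with AlphaFold2 dimer inter-PAE above 15 were retained; each was a mini-protein under 80 residues with no cysteine, in a PA-tagged cDNA display construct. After digestion with trypsin and chymotrypsin and sequencing, K50 was inferred by Bayesian fitting of counts, and unfolding free energy was derived per protease or combined against a sequence-predicted unfolded-state K50 and a shared folded-state K50.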

[2] = folding stability dG unfold (combined trypsin and chymotrypsin); higher = more stable
Summary of the method: as §1

[3] = folding stability dG unfold from trypsin proteolysis; higher = more stable
Summary of the method: as §1

Sequence	folding stability dG unfold [1]	folding stability dG unfold [2]	folding stability dG unfold [3]
SMEIRIKEVNEDGYLVIEIRVLSEDGKELTPEEVEELAEEIAAELKEKFPDVKVTVERLEDGTVRIVVEPSA [r9_485_TrROS_Hall]	11.1 ± 0.628 kJ/mol	12.1 ± 0.92 kJ/mol	13.4 ± 0.628 kJ/mol
SMETPPEELVERVREYLASQGYTVTSVEVTPLPDGSVRVEVTATPPDASTTLTITVTVPPDGTVVVEVTAQS [r1_460_JUSTAS]	22 ± 0.502 kJ/mol	22.2 ± 0.628 kJ/mol	15.7 ± 0.837 kJ/mol
SMETVELRVRVRVFNPETGELVEEIEVTVTLPKGMTLEEALRRAREALREALERLLRPPEPVLDEDGRLVSA [r9_454_TrROS_Hall]	17.8 ± 0.795 kJ/mol	16.7 ± 0.586 kJ/mol	15.3 ± 0.502 kJ/mol
SMEVEFDPENRTIVATVPEGVDPLAVAATLLAVVRELFDSGPVRLIVTNGDEVLEYLLGEDVLEVRPAGESA [r9_224_TrMRF]	17.6 ± 0.46 kJ/mol	16.8 ± 0.418 kJ/mol	13.7 ± 0.46 kJ/mol
SMEVVEEFTLPNGTRITLTKNEDGTVTVTLETTVKNPETGKTTTKTVTITVKLEPGEEYSLEELLATLLSSA [r9_614_TrROS_Hall]	15.8 ± 0.163 kJ/mol	15.5 ± 0.326 kJ/mol	14.7 ± 0.502 kJ/mol
SMEVYTEETEEKSPTPLRRRTTTTTVVTRDGSRTVVTVETRVELEPVPPVPPRPLPPIYTPENREVNILLSA [r9_965_JUSTAS]	2.14 ± 3.39 kJ/mol	5.79 ± 3.05 kJ/mol	6.44 ± 0.711 kJ/mol
SMFKNVKSVHIYQDPIKGNNLIIVAETEEGTVELELPEDKAIEFLNTLKEKGFDIKVTHVEYLPVSPEYGSA [r9_607_TrMRF]	10.26 ± 0.046 kJ/mol	9.86 ± 0.339 kJ/mol	9.18 ± 0.268 kJ/mol
SMIKPDEVVEKIEFTFPDGVAGDTRTFPVPEGSVIVYIDLGEPVYVMEILEDGSVKIEPVPEEVAKELAKSA [r9_1144_TrMRF]	0.483 ± 0.418 kJ/mol	1.26 ± 0.502 kJ/mol	1.55 ± 0.201 kJ/mol
SMIPVEELVRLAAERLGLPEEELENIEEVEPFEVEPLPDNAVRVKLRIRLKNPESDEVTELDIEIVDPGGSA [r9_230_TrMRF]	9.24 ± 0.138 kJ/mol	8.05 ± 0.301 kJ/mol	5.03 ± 0.0879 kJ/mol
SMIQVDIKPDAINVTVTKEGKSVTVPMDLEELEELLKKGVEKVEIKSPDPEVLEKIKELVEKAGVPIELKSA [r9_810_JUSTAS]	2.87 ± 0.251 kJ/mol	4.26 ± 1.05 kJ/mol	4.57 ± 0.418 kJ/mol
SMISLEKETSLPPEEARRAVERFLAELPEVERLLSVEVREDPDSYTVSLTLEGGAVSPEVLEAIERALAASA [r9_195_JUSTAS]	11.3 ± 0.163 kJ/mol	11 ± 0.259 kJ/mol	10.6 ± 0.222 kJ/mol
SMKIEKKDGKYVLTIKIKADSVEEVLNALKKLGIKFPPGVKEIKVVKVEEVNGEVYITIVVDTEEALKALSA [r9_820_TrROS_Hall]	9.77 ± 0.377 kJ/mol	10.9 ± 1.17 kJ/mol	12.3 ± 0.544 kJ/mol
SMKIEPHPDGTVTFTIPAEFPDIPAEEIAALIEKALPPGVRLGEEITVERDPETGEVRVTAKVEVPPDAVSA [r9_1011_TrMRF]	11.8 ± 0.305 kJ/mol	11.4 ± 0.502 kJ/mol	10.4 ± 0.502 kJ/mol
SMKILIVTKEKAEELAEAIKKKFPNIEIEVFDTPEEAEEAAKKGDIVIVIGSEEEAKELAKKLKVKVIKISA [r9_380_TrROS_Hall]	14.2 ± 0.502 kJ/mol	12 ± 1.88 kJ/mol	9.16 ± 0.377 kJ/mol
SMKITPLPGPEEVAEFPETGETITITRDPSTGLVTVTYNGPGTPVTATTDPAVGTVTVNTPDGKITIPLTSA [r9_541_JUSTAS]	-2.14 ± 0.92 kJ/mol	1.45 ± 0.301 kJ/mol	2.8 ± 0.0837 kJ/mol
SMKIYILSSGDKEKVLAEVKEKYPDLEIELFEDIEEAKKAAEKGNLLISNGDEELAKEFEEKYNVKVIIKSA [r9_380_JUSTAS]	6.91 ± 0.172 kJ/mol	6.7 ± 0.586 kJ/mol	5.89 ± 0.163 kJ/mol

Sequence	folding stability dG unfold [1]	folding stability dG unfold [2]	folding stability dG unfold [3]
SMKKGEKIKIEKKKDGTLKITLPDGKEITVPLKDIKIEIKDGKIKITVFKDGKKIAEFELKIKKKKKKKKSA [r9_901_TrROS_Hall]	11 ± 0.46 kJ/mol	9.69 ± 1.76 kJ/mol	7.16 ± 0.293 kJ/mol
SMKPEEVKVIAEIEIEVNGKKIKIKIVKKKDGTVRVEIEVDGKKIEIEVKVKSKEEAKKILEELLKKLGISA [r9_758_TrROS_Hall]	6.38 ± 0.586 kJ/mol	10.1 ± 2.18 kJ/mol	12.3 ± 1.67 kJ/mol
SMKPNEKFPSLEEVKEAAKRIAEEIEKKTGKKIEVEVKVETVKKEDGKEVVKITIVDKKTKKVIKEIEIKSA [r9_794_TrROS_Hall]	3.27 ± 0.318 kJ/mol	6.61 ± 0.502 kJ/mol	9.11 ± 0.402 kJ/mol
SMKPYVYTHPEGITIPMFVLPDGTIKIEVTAFDPNNPVPLGKATATMDPATGTLNLTLPNGTSLSYTIPASA [r9_56_JUSTAS]	10.3 ± 0.418 kJ/mol	10.5 ± 0.669 kJ/mol	10.3 ± 0.272 kJ/mol
SMKSKISEIKSVEKKGNKVVVKVKIKAPKGKAYFIDSNGNIIKEVNLGKEVELEITFDSNNESFKVIVTDSA [r9_917_TrMRF]	8.32 ± 0.134 kJ/mol	7.68 ± 0.414 kJ/mol	5.59 ± 0.272 kJ/mol
SMKVEKLEDGTYIIVNEDGSITEIKVYPDKVEVKTYPVLYKMPDGRWFETKEEAEKFEEETGVPILEEDLSA [r9_660_TrMRF]	3.71 ± 1.13 kJ/mol	3.18 ± 0.962 kJ/mol	3.29 ± 0.46 kJ/mol
SMKVKIKIEVYKPENKLIVKVYFPEIGKEIVFEFDSLEGLFEKIKKELGLKEENIEIVEVKVKEVDPSELSA [r9_909_TrMRF]	8.05 ± 0.201 kJ/mol	9.21 ± 0.753 kJ/mol	9.23 ± 0.669 kJ/mol
SMKVKTYTFKIKVDGKEIEVTVEELEDGELLVTIKIKENGKEKTIVVSREELEELLKALLPPGAEIEKVESA [r9_384_TrROS_Hall]	14.6 ± 0.23 kJ/mol	13.9 ± 0.414 kJ/mol	12.5 ± 0.544 kJ/mol
SMKVTVSVTYNPETQTLELRFTVYERDPNGNWVPTASFPITLPVTIPAPPVPVVEVPEDATLPEDVALADSA [r9_888_TrMRF]	21.5 ± 0.879 kJ/mol	20.9 ± 1.38 kJ/mol	15.2 ± 0.753 kJ/mol
SMLIVAEGDTVTVELIATYTVVERDPDDPNRYTLRAFPLPLTFTVDPNDPEALRRFLEAAPPGFTPVIVGSA [r9_476_TrMRF]	14.4 ± 0.163 kJ/mol	13.3 ± 0.544 kJ/mol	11 ± 0.385 kJ/mol
SMLSEMPPEELAERIARELGLVGAEVEAVRVGDVLLVPLRLRDPVRDEVRLLVLLVVPEDDGRVLLTDLSSA [r9_1042_TrMRF]	10.5 ± 0.121 kJ/mol	9.04 ± 0.381 kJ/mol	6.09 ± 0.113 kJ/mol
SMMKVKVRITFEDGEEVEIEIEMSREELKNKIEELIKELAEKEGKEVKEVKIEIVDEKTNETYTFTIKVKSA [r9_1193_TrROS_Hall]	16.4 ± 0.368 kJ/mol	15.3 ± 1.26 kJ/mol	17.3 ± 0.795 kJ/mol
SMPEKVTFPFNIPLEEYSLEEIKEAVRERLEKEGYKVLKPDLFPEQEKLAKEAPPEAELPLLVEALVVPGSA [r9_1163_TrMRF]	-0.795 ± 1.05 kJ/mol	0.182 ± 1.17 kJ/mol	1.72 ± 0.326 kJ/mol
SMPEPLVLRVRVRDPENPEPVLEFELVIPPDGGVLVLARHPDRVEVREMPLEEAIDLLLSLPFEIEEVEGSA [r9_470_TrMRF]	13.9 ± 0.356 kJ/mol	13.1 ± 0.586 kJ/mol	11.9 ± 0.285 kJ/mol
SMPEVETVTLTLTLVDEETGEEVTIEITATRVDGYLVLTMKVEVTVNGKKYTIEMTIVVKPGEEITLTLESA [r9_1015_TrROS_Hall]	24.5 ± 1.55 kJ/mol	> 25.1 kJ/mol	16.7 ± 1.38 kJ/mol
